Assay results from paper PMC12858062 (PLOS Pathogens, 2026).

Key:
Assay in all cases: far-Western, overlay or dot blot; western blot: non-reduced lysate of P. falciparum NF54 iGP2 stage V gametocytes separated by SDS-PAGE, probed with 0.1 µg/mL antibodies for 1 h at RT; HRP anti-human IgG
Conditions in all cases: one partner purified
[1] = biological target: D3-Fc (anti-Pfs48/45 nanobody D3 fused to hinge and Fc of human IgG1) (alpaca)
[2] = biological target: B2-Fc (anti-Pfs48/45 nanobody B2 fused to hinge and Fc of human IgG1) (alpaca)
[3] = biological target: C1-Fc (anti-Pfs48/45 nanobody C1 fused to hinge and Fc of human IgG1) (alpaca)
[4] = biological target: F6-Fc (anti-Pfs48/45 nanobody F6 fused to hinge and Fc of human IgG1) (alpaca)
[5] = biological target: G3-Fc (anti-Pfs48/45 nanobody G3 fused to hinge and Fc of human IgG1) (alpaca)
[6] = biological target: D4-Fc (anti-Pfs48/45 nanobody D4 fused to hinge and Fc of human IgG1) (alpaca)
[7] = biological target: H4-Fc (anti-Pfs48/45 nanobody H4 fused to hinge and Fc of human IgG1) (alpaca)
[8] = biological target: C7-Fc (anti-Pfs48/45 nanobody C7 fused to hinge and Fc of human IgG1) (alpaca)
[9] = biological target: C3-Fc (anti-Pfs48/45 nanobody C3 fused to hinge and Fc of human IgG1) (alpaca)
[10] = biological target: A4-Fc (anti-Pfs48/45 nanobody A4 fused to hinge and Fc of human IgG1) (alpaca)

Measured: binding result

B1: Full-length Pfs48/45 from P. falciparum NF54 iGP2 stage V gametocytes (natural protein)
chain: NNDFCKPSSLNSEISGFIGYKCNFSNEGVHNLKPDMRERRSIFCTIHSYFIYDKIRLIIPKKSSSPEFKILPEKCFQKVYTDYENRVETDISELGLIEYEIEENDTNPNYNERTITISPFSPKDIEFFCFCDNTEKVISSIEGRSAMVHVRVLKYPHNILFTNLTNDLFTYLPKTYNESNFVSNVLEVELNDGELFVLACELINKKCFQEGKEKALYKSNKIIYHKNLTIFKAPFYVTSKDVNTECTCKFKNNNYKIVLKPKYEKKVIHGCNFSSNVSSKHTFTDSLDISLVDDSAHISCNVHLSEPKYNHLVGLNCPGDIIPDCFFQVYQPESEELEPSNIVYLDSQINIGDIEYYEDAEGDDKIKLFGIVGSIPKTTSFTCICKKDKKSAYMTVTID
binds: [1] | [2] | [3] | [4] | [5] | [6] | [7] | [8] | [9] | [10]
